The text below walks through data of paper PMC4258549.

Read-outs that look alike come from different tables or passages of the source.

Holding throughout (assay): AlphaScreen or HTRF
The target of test [1] is biotinylated C4b (human).
Test [2] has as its target biotinylated C4b (human). The source holds these as a separate data set.
In test [3] the target is myc-tagged Eap (Staphylococcus aureus) (UniProt Q99QS1).
myc-tagged Eap (Staphylococcus aureus), sequence (Q99QS1 31-476): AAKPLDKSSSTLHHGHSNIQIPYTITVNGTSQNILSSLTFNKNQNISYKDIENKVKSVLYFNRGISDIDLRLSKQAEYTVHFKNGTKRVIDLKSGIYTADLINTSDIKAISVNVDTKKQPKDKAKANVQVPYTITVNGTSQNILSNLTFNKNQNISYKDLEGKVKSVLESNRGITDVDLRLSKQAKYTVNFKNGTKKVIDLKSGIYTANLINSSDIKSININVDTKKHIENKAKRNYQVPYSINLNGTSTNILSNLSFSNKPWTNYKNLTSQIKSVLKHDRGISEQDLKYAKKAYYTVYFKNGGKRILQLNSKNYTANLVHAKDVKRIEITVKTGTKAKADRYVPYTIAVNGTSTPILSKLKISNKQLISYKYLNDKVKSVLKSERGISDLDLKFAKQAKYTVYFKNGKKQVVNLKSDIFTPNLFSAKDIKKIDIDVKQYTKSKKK

C4b-binding protein, sequence (P04003 49-597): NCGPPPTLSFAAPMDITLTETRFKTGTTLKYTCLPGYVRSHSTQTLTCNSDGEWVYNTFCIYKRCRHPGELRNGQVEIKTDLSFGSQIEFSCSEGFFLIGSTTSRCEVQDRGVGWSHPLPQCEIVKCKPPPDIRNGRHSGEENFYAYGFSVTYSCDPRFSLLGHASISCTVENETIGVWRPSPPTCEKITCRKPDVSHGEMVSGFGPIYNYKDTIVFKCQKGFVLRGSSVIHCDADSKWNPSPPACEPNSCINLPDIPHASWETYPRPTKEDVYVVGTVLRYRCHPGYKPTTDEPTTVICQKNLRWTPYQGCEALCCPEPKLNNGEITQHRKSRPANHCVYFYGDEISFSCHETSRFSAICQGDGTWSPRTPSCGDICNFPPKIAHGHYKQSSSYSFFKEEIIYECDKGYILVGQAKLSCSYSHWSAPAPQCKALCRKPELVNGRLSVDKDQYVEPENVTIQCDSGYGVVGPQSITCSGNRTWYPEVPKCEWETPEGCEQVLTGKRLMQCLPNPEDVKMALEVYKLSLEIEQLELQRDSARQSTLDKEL
C4b-binding protein, sequence (P20851 18-252): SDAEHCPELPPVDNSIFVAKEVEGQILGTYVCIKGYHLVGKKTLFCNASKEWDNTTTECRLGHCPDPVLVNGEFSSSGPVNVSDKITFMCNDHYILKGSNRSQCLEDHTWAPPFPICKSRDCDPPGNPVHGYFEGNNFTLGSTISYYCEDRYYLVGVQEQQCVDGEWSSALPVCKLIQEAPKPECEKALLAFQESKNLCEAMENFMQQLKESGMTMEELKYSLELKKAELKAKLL

In the case of “C4b-binding protein (from UniProt P04003 49-597; P20851 18-252) (complex)”, the IC50 in the test with biotinylated C4b (human) [1] came out at 13 nM; with biotinylated C4b (human) [2], 21 nM.

As for “C2b fragment of complement component C2, recombinant (domain or fragment)”, the IC50 with biotinylated C4b (human) [2] came out at 3500 nM.

In test [3], “native complement component C4 (complex)” returned a Kd of 45 nM.

On to C4c (complex), for which, in test [3], the Kd was 138 nM.
